Test results from patent publication US20260250737A1, “Engineered Luciferases and Luciferin Substrates” (Monod Bio, Inc., priority 2023, published 2026).

Key:
Type in all cases: biochemical
[1] = test system: construct containing Small Lux (SmLux), Large Lux (LgLux), FKBP and FRB; assay: LuxSit split optimization: SmLux-LgLux-FKBP-FRB construct on the surface of yeast, rapamycin-induced signal; details: Table 19, LgLux variants, 50 uM substrate 1c; for Fold change upon Rap addition: 20 uM Rapamycin
Procedure: To optimize the function of the LuxSit Splits, a construct containing Small Lux (SmLux), Large Lux (LgLux) and the proteins that bind the molecule Rapamycin (FKBP and FRB), connected by GS linkers, was expressed on the surface of yeast. When 50 uM of substrate 1c is added to yeast expressing this construct, a baseline signal is observed due to SmLux and LgLux reconstitution. When 20 uM of Rapamycin is added, SmLux and LgLux are brought closer to each other by FKBP and FRB, enhancing their reconstitution. As a result, an increase in signal is observed.
Libraries of SmLux and LgLux were assembled and tested independently to identify variants with lower baseline and higher fold change.

SmLux [2] = assay: LgLux stability optimization: error-prone PCR LgLux mutants on yeast, protease treatment, SmLux complementation; details: Table 20, EP-PCR LgLux mutants on yeast, 50 uM substrate 1c; for Fold change upon SmLux peptide addition: 200 nM SmLux
Procedure: LgLux mutants were generated by error-prone PCR (EP-PCR) and treated with protease and their activity measured as depicted schematically in FIG. 44.
Yeast expressing a library of the LgLux mutants were incubated with proteases and screened to select variants that were stable enough to resist proteolysis. Functional variants were selected by adding 50 uM of substrate 1c and 200 nM of SmLux.
The nucleotide sequence encoding LgLux_4039 was subjected to EP-PCR to identify protease-stable mutants. The sequences (SEQ ID NOs: 2806-2814) and activity of the mutants are summarized below in Table 20.

SmLux [3] = assay: Computationally generated LgLux variants expressed in E. coli, tested in lysates with SmLux and substrate 1c
Procedure, shortened: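 Variants expressed in E. coli and screened as lysates, complemented with 20 uM SmLux and given 50 uM substrate 1c; luminescent activity measured.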

Row | Molecule | Baseline Signal (Normalized by expression) [1] | Fold change upon Rap addition [1] | Baseline Signal (Normalized by expression) (SmLux [2]) | Fold change upon SmLux peptide addition (SmLux [2]) | other results
1 | MBIO-5337: LgLux_4039 variant R11L, D30N; SEQ ID NO 2799 (protein) MSEEQIRQNLLRFYEALDSGDAITAASLFNPGVTITLWDGTTFTSVEEFREWFESQFSTSKDALREISSLEVRGDTVEVTVRLSFTRNGQKHTVDLLQLFKFV | 14853.7 | 2.1 |  |  | 
2 | SEQ ID NO 2814: LgLux_4039 EP-PCR mutant E51V, K61T (protein) MSEEQIRQNLRRFYEALDSGDAITAASLFDPGVTITLWDGTTFTSVEEFRVWFESQFSTSTDALREISSLEVRGDTVEVTVRLSFTRNGQKHTVDLLQLFKFV |  |  | 934.2 | 53.1 | 
3 | LgLux_4039: Large Lux fragment of MBIO-4039 (protein) MSEEQIRQNLRRFYEALDSGDAITAASLFDPGVTITLWDGTTFTSVEEFREWFESQFSTSKDALREISSLEVRGDTVEVTVRLSFTRNGQKHTVDLLQLFKFV | 22064.6 | 1.9 | 417.8 | 78.5 | Fold change upon SmLux peptide addition (SmLux [3]; 20 uM SmLux, 50 uM substrate 1c): 214.43; Baseline Signal (Normalized by expression) (SmLux [3]; 50 uM substrate 1c, before SmLux peptide addition): 299.2; Fold change upon SmLux peptide addition (SmLux [3]; Table 22, 20 uM SmLux, 50 uM substrate 1c): 360.49; Baseline Signal (Normalized by expression) (SmLux [3]; Table 22, 50 uM substrate 1c): 1766.6
4 | MBIO-5339: LgLux_4039 variant R11L, I23V; SEQ ID NO 2801 (protein) MSEEQIRQNLLRFYEALDSGDAVTAASLFDPGVTITLWDGTTFTTVEEFREWFESQFSTSKDALREISSLEVRGDTVEVTVRLSFTRNGQKHTVDLLQLFKFV | 28286 | 1.9 |  |  | 
5 | SEQ ID NO 2809: LgLux_4039 EP-PCR mutant N9D, V103I (protein) MSEEQIRQDLRRFYEALDSGDAITAASLFDPGVTITLWDGTTFTSVEEFREWFESQFSTSKDALREISSLEVRGDTVEVTVRLSFTRNGQKHTVDLLQLFKFI |  |  | 638.6 | 170 | 
6 | SEQ ID NO 2813: LgLux_4039 EP-PCR mutant T34I (protein) MSEEQIRQNLRRFYEALDSGDAITAASLFDPGVIITLWDGTTFTSVEEFREWFESQFSTSKDALREISSLEVRGDTVEVTVRLSFTRNGQKHTVDLLQLFKFV |  |  | 241.6 | 52 | 
7 | SEQ ID NO 2811: LgLux_4039 EP-PCR mutant N9I, N88D (protein) MSEEQIRQILRRFYEALDSGDAITAASLFDPGVTITLWDGTTFTSVEEFREWFESQFSTSKDALREISSLEVRGDTVEVTVRLSFTRDGQKHTVDLLQLFKFV |  |  | 232.7 | 55.5 | 
8 | MBIO-5338: LgLux_4039 variant T41A, H92Q; SEQ ID NO 2800 (protein) MSEEQIRQNLRRFYEALDSGDAITAASLFDPGVTITLWDGATFTSVEEFREWFESQFSTSKDALREISSLEVRGDTVEVTVRLSFTRNGQKQTVDLLQLFKFV | 18945.1 | 2.2 |  |  | 
9 | SEQ ID NO 2805: LgLux_4039 variant S19C (protein) MSEEQIRQNLRRFYEALDCGDAITAASLFDPGVTITLWDGTTFTSVEEFREWFESQFSTSKDALREISSLEVRGDTVEVTVRLSFTRNGQKHTVDLLQLFKFV | 3667.6 | 2 |  |  | 
10 | MBIO-5340: LgLux_4039 variant S2T, I6L, R11L, E48K; SEQ ID NO 2804 (protein) MTEEQLRQNLLRFYEALDSGDAITAASLFDPGVTITLWDGTTFTSVEKFREWFESQFSTSKDALREISSLEVRGDTVEVTVRLSFTRNGQKHTVDLLQLFKFV | 6666.1 | 2.2 |  |  | 
11 | SEQ ID NO 2807: LgLux_4039 EP-PCR mutant L99Q (protein) MSEEQIRQNLRRFYEALDSGDAITAASLFDPGVTITLWDGTTFTSVEEFREWFESQFSTSKDALREISSLEVRGDTVEVTVRLSFTRNGQKHTVDLLQQFKFV |  |  | 738.4 | 83.3 | 
12 | MBIO-5342: LgLux_4039 variant E54G, S55T, R87S; SEQ ID NO 2802 (protein) MSEEQIRQNLRRFYEALDSGDAITAASLFDPGVTITLWDGTTFTSVEEFREWFGTQFSTSKDALREISSLEVRGDTVEVTVRLSFTSNGQKHTVDLLQLFKFV | 3361.4 | 2 |  |  | 
13 | SEQ ID NO 2810: LgLux_4039 EP-PCR mutant F43L (protein) MSEEQIRQNLRRFYEALDSGDAITAASLFDPGVTITLWDGTTLTSVEEFREWFESQFSTSKDALREISSLEVRGDTVEVTVRLSFTRNGQKHTVDLLQLFKFV |  |  | 327.2 | 81.7 | 
14 | SEQ ID NO 2806: LgLux_4039 EP-PCR mutant N9S (protein) MSEEQIRQSLRRFYEALDSGDAITAASLFDPGVTITLWDGTTFTSVEEFREWFESQFSTSKDALREISSLEVRGDTVEVTVRLSFTRNGQKHTVDLLQLFKFV |  |  | 973.7 | 126.7 | 
15 | SEQ ID NO 2808: LgLux_4039 EP-PCR mutant K101E (protein) MSEEQIRQNLRRFYEALDSGDAITAASLFDPGVTITLWDGTTFTSVEEFREWFESQFSTSKDALREISSLEVRGDTVEVTVRLSFTRNGQKHTVDLLQLFEFV |  |  | 228.3 | 86.8 | 
16 | SEQ ID NO 2812: LgLux_4039 EP-PCR mutant L64F (protein) MSEEQIRQNLRRFYEALDSGDAITAASLFDPGVTITLWDGTTFTSVEEFREWFESQFSTSKDAFREISSLEVRGDTVEVTVRLSFTRNGQKHTVDLLQLFKFV |  |  | 233.2 | 61.7 | 
17 | MBIO-5341: LgLux_4039 variant P31S; SEQ ID NO 2803 (protein) MSEEQIRQNLRRFYEALDSGDAITAASLFDSGVTITLWDGTTFTSVEEFREWFESQFSTSKDALREISSLEVRGDTVEVTVRLSFTRNGQKHTVDLLQLFKFV | 10433.7 | 2.2 |  |  | 
